Measurements taken from paper PMC4673829, “Chemical basis for the recognition of trimethyllysine by epigenetic reader proteins” (Nature Communications, 2015).
Ends that are not written are not given here. Me3 = trimethyllysine (Kme3)

T1: TAF3 PHD domain (for ITC)
T1 chain: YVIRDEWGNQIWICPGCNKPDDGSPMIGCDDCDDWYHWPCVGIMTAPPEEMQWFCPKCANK

T2: BPTF PHD zinc finger
T2 chain: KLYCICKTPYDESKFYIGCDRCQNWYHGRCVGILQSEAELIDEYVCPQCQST

T3: JMJD2A tudor domains
T3 construct: JMJD2A (KDM4A), tudor domains; source: E. coli Rosetta BL21 DE3 pLysS, purified (Ni-NTA, TEV protease, Superdex 75)
T3 sequence (O75164 whole entry, species assumed, looked up): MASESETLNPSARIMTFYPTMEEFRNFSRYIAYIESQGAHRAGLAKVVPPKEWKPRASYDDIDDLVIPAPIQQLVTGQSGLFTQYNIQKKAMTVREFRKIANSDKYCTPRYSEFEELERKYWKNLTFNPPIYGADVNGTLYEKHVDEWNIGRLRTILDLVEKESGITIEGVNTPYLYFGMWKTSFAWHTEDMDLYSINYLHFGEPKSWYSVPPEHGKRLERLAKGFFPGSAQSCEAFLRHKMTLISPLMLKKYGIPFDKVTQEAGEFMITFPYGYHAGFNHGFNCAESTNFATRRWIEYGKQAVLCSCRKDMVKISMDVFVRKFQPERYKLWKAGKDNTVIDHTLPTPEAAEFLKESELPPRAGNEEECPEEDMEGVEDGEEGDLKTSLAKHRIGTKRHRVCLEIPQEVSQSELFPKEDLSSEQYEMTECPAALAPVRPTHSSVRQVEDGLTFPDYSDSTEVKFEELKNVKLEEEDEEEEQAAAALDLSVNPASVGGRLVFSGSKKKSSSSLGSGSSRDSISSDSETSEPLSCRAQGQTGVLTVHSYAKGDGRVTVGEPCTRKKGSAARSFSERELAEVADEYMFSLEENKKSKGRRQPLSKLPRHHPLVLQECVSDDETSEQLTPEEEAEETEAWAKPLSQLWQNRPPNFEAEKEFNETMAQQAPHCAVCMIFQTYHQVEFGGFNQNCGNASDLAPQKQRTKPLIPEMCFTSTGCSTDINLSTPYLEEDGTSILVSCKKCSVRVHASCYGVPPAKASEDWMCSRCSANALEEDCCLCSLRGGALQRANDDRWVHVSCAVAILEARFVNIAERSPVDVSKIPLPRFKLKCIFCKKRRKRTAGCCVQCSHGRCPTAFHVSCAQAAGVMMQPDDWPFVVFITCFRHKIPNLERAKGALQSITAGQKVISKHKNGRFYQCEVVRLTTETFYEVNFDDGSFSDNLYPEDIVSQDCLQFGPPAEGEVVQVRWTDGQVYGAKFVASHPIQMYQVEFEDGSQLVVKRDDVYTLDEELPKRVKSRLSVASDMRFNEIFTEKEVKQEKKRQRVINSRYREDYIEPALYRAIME


How the values were obtained:
Conditions in all cases: both partners purified
[1] = biological target: T1, TAF3 PHD domain (for ITC); experiment: ITC; 350–600 μM H3K4me3 or H3C4me3 peptide titrated to 25–40 μM protein (JMJD2A–H3C4me3: 3 mM peptide to 200 μM JMJD2A); 19 injections; Microcal Auto-iTC200; one set of sites model; 5–7 repeats
BPTF PHD zinc finger = biological target: T2, BPTF PHD zinc finger; experiment: as above
[2] = biological target: T4, JARID1A PHD3 domain (for ITC); experiment: as above
T4 construct: JARID1A (KDM5A), PHD3 domain; cleavage of the tag is told only for JMJD2A, SGF29 and TAF3; also called PHD zinc finger of JARID1A; source: E. coli Rosetta BL21 DE3 pLysS, purified (Ni-NTA or glutathione sepharose beads, Superdex 75)

[3] = biological target: T5, SGF29 tandem tudor domain (for ITC); experiment: as above
T5 construct: SGF29, tandem tudor domain; the crystallisation construct is residues 115-293 of human SGF29; source: E. coli Rosetta BL21 DE3 pLysS, purified (Ni-NTA, TEV protease, Superdex 75)

JMJD2A tudor domains = biological target: T3, JMJD2A tudor domains; experiment: as above
[4] = biological target: T1, TAF3 PHD domain (for ITC); experiment: ITC; H3G4 (5 mM) titrated to JARID1A (330 μM), H3G4 (3 mM) titrated to TAF3 (200 μM); 19 injections; Microcal Auto-iTC200; one set of sites model

T5 sequence (Q96ES7 whole entry, the tested form may be a part): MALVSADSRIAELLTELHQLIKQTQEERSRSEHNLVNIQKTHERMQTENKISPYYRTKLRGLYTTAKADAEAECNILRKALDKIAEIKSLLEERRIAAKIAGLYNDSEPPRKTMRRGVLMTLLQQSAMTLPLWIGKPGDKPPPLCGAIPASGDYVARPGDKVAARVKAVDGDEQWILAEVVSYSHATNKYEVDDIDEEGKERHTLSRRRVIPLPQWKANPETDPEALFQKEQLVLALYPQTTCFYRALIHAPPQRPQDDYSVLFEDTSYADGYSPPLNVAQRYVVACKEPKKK

Row | Binder | Kd [1] [nM] | dH [1] [kcal/mol] | Kd (BPTF PHD zinc finger) [nM] | dH (BPTF PHD zinc finger) [kcal/mol] | Kd [2] [nM] | dH [2] [kcal/mol] | Kd [3] [nM] | dH [3] [kcal/mol] | Kd (JMJD2A tudor domains) [nM] | dH (JMJD2A tudor domains) [kcal/mol] | Kd [4] [nM] | dH [4] [kcal/mol]
1 | ARTK(Me3)QTARKS-OH (histone H3, residues 1-10, with Kme3 at the fourth position; Peptides appear as TFA salts; also called H3(1-10)K4me3; source: synthetic peptide (solid-phase synthesis, Fmoc chemistry, preparative HPLC)) [10-mer H3K4me3 histone peptide] | 24 | -10.9 ± 0.1 | 490 | -13.1 ± 0.1 |  |  |  |  |  |  |  | 
2 | ARTXQTARKS (Cme3 (neutral carba analogue of trimethyllysine, tert-butyl in place of trimethylammonium) at position 4; carboxylic acid at the C terminus) [10-mer H3C4me3 histone peptide] | 790 | -5.2 ± 0.1 | 760 | -10 ± 0.2 | 340 | -7.4 ± 0.1 | 1400 | -7.9 ± 0.1 | 16000 | -8.1 ± 0.1 |  | 
3 | ARTGQTARKS-OH (source: synthetic peptide (solid-phase synthesis, Fmoc chemistry, preparative HPLC)) [10-mer H3G4 histone peptide] |  |  |  |  |  |  |  |  |  |  | 36000 | -2.5
